Measured values reported in IntAct's records for PubMed 30126976.

B1: Vang-like protein 2 (Homo sapiens), Q9ULK5 (parent)
chain: MDTESQYSGYSYKSGHSRSSRKHRDRRDRHRSKSRDGGRGDKSVTIQAPGEPLLDNESTRGDERDDNWGETTTVVTGTSEHSISHDDLTRIAKDMEDSVPLDCSRHLGVAAGATLALLSFLTPLAFLLLPPLLWREELEPCGTACEGLFISVAFKLLILLLGSWALFFRRPKASLPRVFVLRALLMVLVFLLVVSYWLFYGVRILDARERSYQGVVQFAVSLVDALLFVHYLAVVLLELRQLQPQFTLKVVRSTDGASRFYNVGHLSIQRVAVWILEKYYHDFPVYNPALLNLPKSVLAKKVSGFKVYSLGEENSTNNSTGQSRAVIAAAARRRDNSHNEYYYEEAEHERRVRKRRARLVVAVEEAFTHIKRLQEEEQKNPREVMDPREAAQAIFASMARAMQKYLRTTKQQPYHTMESILQHLEFCITHDMTPKAFLERYLAAGPTIQYHKERWLAKQWTLVSEEPVTNGLKDGIVFLLKRQDFSLVVSTKKVPFFKLSEEFVDPKSHKFVMRLQSETSV
B2: A-kinase anchor protein 1, mitochondrial (Homo sapiens), Q92667 (parent)
chain: MAIQFRSLFPLALPGMLALLGWWWFFSRKKGHVSSHDEQQVEAGAVQLRADPAIKEPLPVEDVCPKVVSTPPSVTEPPEKELSTVSKLPAEPPALLQTHPPCRRSESSGILPNTTDMRLRPGTRRDDSTKLELALTGGEAKSIPLECPLSSPKGVLFSSKSAEVCKQDSPFSRVPRKVQPGYPVVPAEKRSSGERARETGGAEGTGDAVLGEKVLEEALLSREHVLELENSKGPSLASLEGEEDKGKSSSSQVVGPVQEEEYVAEKLPSRFIESAHTELAKDDAAPAPPVADAKAQDRGVEGELGNEESLDRNEEGLDRNEEGLDRNEESLDRNEEGLDRNEEIKRAAFQIISQVISEATEQVLATTVGKVAGRVCQASQLQGQKEESCVPVHQKTVLGPDTAEPATAEAAVAPPDAGLPLPGLPAEGSPPPKTYVSCLKSLLSSPTKDSKPNISAHHISLASCLALTTPSEELPDRAGILVEDATCVTCMSDSSQSVPLVASPGHCSDSFSTSGLEDSCTETSSSPRDKAITPPLPESTVPFSNGVLKGELSDLGAEDGWTMDAEADHSGGSDRNSMDSVDSCCSLKKTESFQNAQAGSNPKKVDLIIWEIEVPKHLVGRLIGKQGRYVSFLKQTSGAKIYISTLPYTQSVQICHIEGSQHHVDKALNLIGKKFKELNLTNIYAPPLPSLALPSLPMTSWLMLPDGITVEVIVVNQVNAGHLFVQQHTHPTFHALRSLDQQMYLCYSQPGIPTLPTPVEITVICAAPGADGAWWRAQVVASYEETNEVEIRYVDYGGYKRVKVDVLRQIRSDFVTLPFQGAEVLLDSVMPLSDDDQFSPEADAAMSEMTGNTALLAQVTSYSPTGLPLIQLWSVVGDEVVLINRSLVERGLAQWVDSYYTSL
B3: Vang-like protein 1 (Homo sapiens), Q8TAA9 (parent)
chain: MDTESTYSGYSYYSSHSKKSHRQGERTRERHKSPRNKDGRGSEKSVTIQPPTGEPLLGNDSTRTEEVQDDNWGETTTAITGTSEHSISQEDIARISKDMEDSVGLDCKRYLGLTVASFLGLLVFLTPIAFILLPPILWRDELEPCGTICEGLFISMAFKLLILLIGTWALFFRKRRADMPRVFVFRALLLVLIFLFVVSYWLFYGVRILDSRDRNYQGIVQYAVSLVDALLFIHYLAIVLLELRQLQPMFTLQVVRSTDGESRFYSLGHLSIQRAALVVLENYYKDFTIYNPNLLTASKFRAAKHMAGLKVYNVDGPSNNATGQSRAMIAAAARRRDSSHNELYYEEAEHERRVKKRKARLVVAVEEAFIHIQRLQAEEQQKAPGEVMDPREAAQAIFPSMARALQKYLRITRQQNYHSMESILQHLAFCITNGMTPKAFLERYLSAGPTLQYDKDRWLSTQWRLVSDEAVTNGLRDGIVFVLKCLDFSLVVNVKKIPFIILSEEFIDPKSHKFVLRLQSETSV
B4: Prostaglandin D2 receptor (Homo sapiens), Q13258 (parent)
chain: MKSPFYRCQNTTSVEKGNSAVMGGVLFSTGLLGNLLALGLLARSGLGWCSRRPLRPLPSVFYMLVCGLTVTDLLGKCLLSPVVLAAYAQNRSLRVLAPALDNSLCQAFAFFMSFFGLSSTLQLLAMALECWLSLGHPFFYRRHITLRLGALVAPVVSAFSLAFCALPFMGFGKFVQYCPGTWCFIQMVHEEGSLSVLGYSVLYSSLMALLVLATVLCNLGAMRNLYAMHRRLQRHPRSCTRDCAEPRADGREASPQPLEELDHLLLLALMTVLFTMCSLPVIYRAYYGAFKDVKEKNRTSEEAEDLRALRFLSVISIVDPWIFIIFRSPVFRIFFHKIFIRPLRYRSRCSNSTNMESSL
B5: Neuroepithelial cell-transforming gene 1 protein (Homo sapiens), Q7Z628 (parent)
chain: MEPELAAQKQPRPRRRSRRASGLSTEGATGPSADTSGSELDGRCSLRRGSSFTFLTPGPNWDFTLKRKRREKDDDVVSLSSLDLKEPSNKRVRPLARVTSLANLISPVRNGAVRRFGQTIQSFTLRGDHRSPASAQKFSSRSTVPTPAKRRSSALWSEMLDITMKESLTTREIRRQEAIYEMSRGEQDLIEDLKLARKAYHDPMLKLSIMSEEELTHIFGDLDSYIPLHEDLLTRIGEATKPDGTVEQIGHILVSWLPRLNAYRGYCSNQLAAKALLDQKKQDPRVQDFLQRCLESPFSRKLDLWSFLDIPRSRLVKYPLLLKEILKHTPKEHPDVQLLEDAILIIQGVLSDINLKKGESECQYYIDKLEYLDEKQRDPRIEASKVLLCHGELRSKSGHKLYIFLFQDILVLTRPVTRNERHSYQVYRQPIPVQELVLEDLQDGDVRMGGSFRGAFSNSEKAKNIFRIRFHDPSPAQSHTLQANDVFHKQQWFNCIRAAIAPFQSAGSPPELQGLPELHEECEGNHPSARKLTAQRRASTVSSVTQVEVDENAYRCGSGMQMAEDSKSLKTHQTQPGIRRARDKALSGGKRKETLV
B6: Plakophilin-4 (Homo sapiens), Q99569 (parent)
chain: MPAPEQASLVEEGQPQTRQEAASTGPGMEPETTATTILASVKEQELQFQRLTRELEVERQIVASQLERCRLGAESPSIASTSSTEKSFPWRSTDVPNTGVSKPRVSDAVQPNNYLIRTEPEQGTLYSPEQTSLHESEGSLGNSRSSTQMNSYSDSGYQEAGSFHNSQNVSKADNRQQHSFIGSTNNHVVRNSRAEGQTLVQPSVANRAMRRVSSVPSRAQSPSYVISTGVSPSRGSLRTSLGSGFGSPSVTDPRPLNPSAYSSTTLPAARAASPYSQRPASPTAIRRIGSVTSRQTSNPNGPTPQYQTTARVGSPLTLTDAQTRVASPSQGQVGSSSPKRSGMTAVPQHLGPSLQRTVHDMEQFGQQQYDIYERMVPPRPDSLTGLRSSYASQHSQLGQDLRSAVSPDLHITPIYEGRTYYSPVYRSPNHGTVELQGSQTALYRTGSVGIGNLQRTSSQRSTLTYQRNNYALNTTATYAEPYRPIQYRVQECNYNRLQHAVPADDGTTRSPSIDSIQKDPREFAWRDPELPEVIHMLQHQFPSVQANAAAYLQHLCFGDNKVKMEVCRLGGIKHLVDLLDHRVLEVQKNACGALRNLVFGKSTDENKIAMKNVGGIPALLRLLRKSIDAEVRELVTGVLWNLSSCDAVKMTIIRDALSTLTNTVIVPHSGWNNSSFDDDHKIKFQTSLVLRNTTGCLRNLSSAGEEARKQMRSCEGLVDSLLYVIHTCVNTSDYDSKTVENCVCTLRNLSYRLELEVPQARLLGLNELDDLLGKESPSKDSEPSCWGKKKKKKKRTPQEDQWDGVGPIPGLSKSPKGVEMLWHPSVVKPYLTLLAESSNPATLEGSAGSLQNLSAGNWKFAAYIRAAVRKEKGLPILVELLRMDNDRVVSSVATALRNMALDVRNKELIGKYAMRDLVNRLPGGNGPSVLSDETMAAICCALHEVTSKNMENAKALADSGGIEKLVNITKGRGDRSSLKVVKAAAQVLNTLWQYRDLRSIYKKDGWNQNHFITPVSTLERDRFKSHPSLSTTNQQMSPIIQSVGSTSSSPALLGIRDPRSEYDRTQPPMQYYNSQGDATHKGLYPGSSKPSPIYISSYSSPAREQNRRLQHQQLYYSQDDSNRKNFDAYRLYLQSPHSYEDPYFDDRVHFPASTDYSTQYGLKSTTNYVDFYSTKRPSYRAEQYPGSPDSWV
B7: Rho guanine nucleotide exchange factor 16 (Homo sapiens), Q5VV41 (parent)
chain: MAQRHSDSSLEEKLLGHRFHSELRLDAGGNPASGLPMVRGSPRVRDDAAFQPQVPAPPQPRPPGHEEPWPIVLSTESPAALKLGTQQLIPKSLAVASKAKTPARHQSFGAAVLSREAARRDPKLLPAPSFSLDDMDVDKDPGGMLRRNLRNQSYRAAMKGLGKPGGQGDAIQLSPKLQALAEEPSQPHTRSPAKNKKTLGRKRGHKGSFKDDPQLYQEIQERGLNTSQESDDDILDESSSPEGTQKVDATIVVKSYRPAQVTWSQLPEVVELGILDQLSTEERKRQEAMFEILTSEFSYQHSLSILVEEFLQSKELRATVTQMEHHHLFSNILDVLGASQRFFEDLEQRHKAQVLVEDISDILEEHAEKHFHPYIAYCSNEVYQQRTLQKLISSNAAFREALREIERRPACGGLPMLSFLILPMQRVTRLPLLMDTLCLKTQGHSERYKAASRALKAISKLVRQCNEGAHRMERMEQMYTLHTQLDFSKVKSLPLISASRWLLKRGELFLVEETGLFRKIASRPTCYLFLFNDVLVVTKKKSEESYMVQDYAQMNHIQVEKIEPSELPLPGGGNRSSSVPHPFQVTLLRNSEGRQEQLLLSSDSASDRARWIVALTHSERQWQGLSSKGDLPQVEITKAFFAKQADEVTLQQADVVLVLQQEDGWLYGERLRDGETGWFPEDFARFITSRVAVEGNVRRMERLRVETDV

Variants of: B1
Conditions: with dlg1_human DLG1, Q12959
Target sequence in this assay (Q12959 whole entry, looked up): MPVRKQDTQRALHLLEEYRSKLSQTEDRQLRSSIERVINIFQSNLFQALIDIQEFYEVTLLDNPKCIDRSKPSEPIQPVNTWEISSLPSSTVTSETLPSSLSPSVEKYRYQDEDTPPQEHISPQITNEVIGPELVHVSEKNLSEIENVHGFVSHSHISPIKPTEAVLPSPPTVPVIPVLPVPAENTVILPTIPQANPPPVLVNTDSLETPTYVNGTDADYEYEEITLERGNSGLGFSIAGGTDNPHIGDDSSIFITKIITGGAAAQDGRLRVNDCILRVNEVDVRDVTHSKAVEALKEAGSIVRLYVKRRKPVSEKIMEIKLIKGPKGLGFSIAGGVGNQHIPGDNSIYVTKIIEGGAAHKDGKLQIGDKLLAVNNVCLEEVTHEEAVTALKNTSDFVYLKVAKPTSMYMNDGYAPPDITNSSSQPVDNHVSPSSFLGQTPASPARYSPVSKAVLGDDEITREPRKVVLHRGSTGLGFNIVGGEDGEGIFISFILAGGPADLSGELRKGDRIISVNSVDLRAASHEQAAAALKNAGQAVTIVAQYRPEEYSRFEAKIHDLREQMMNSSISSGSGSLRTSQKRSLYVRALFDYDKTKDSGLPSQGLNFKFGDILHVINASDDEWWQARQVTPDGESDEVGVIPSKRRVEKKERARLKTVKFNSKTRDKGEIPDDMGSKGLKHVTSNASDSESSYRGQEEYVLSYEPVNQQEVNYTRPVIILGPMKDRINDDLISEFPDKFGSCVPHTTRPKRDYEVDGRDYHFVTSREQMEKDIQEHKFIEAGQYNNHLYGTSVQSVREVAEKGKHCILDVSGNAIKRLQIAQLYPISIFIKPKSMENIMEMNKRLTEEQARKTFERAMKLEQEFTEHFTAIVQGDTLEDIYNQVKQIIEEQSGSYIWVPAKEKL

Variant	effect of a mutation on the interaction
MDTESQYSGYSYKSGHSRSSRKHRDRRDRHRSKSRDGGRGDKSVTIQAPGEPLLDNESTRGDERDDNWGETTTVVTGTSEHSISHDDLTRIAKDMEDSVPLDCSRHLGVAAGATLALLSFLTPLAFLLLPPLLWREELEPCGTACEGLFISVAFKLLILLLGSWALFFRRPKASLPRVFVLRALLMVLVFLLVVSYWLFYGVRILDARERSYQGVVQFAVSLVDALLFVHYLAVVLLELRQLQPQFTLKVVRSTDGASRFYNVGHLSIQRVAVWILEKYYHDFPVYNPALLNLPKSVLAKKVSGFKVYSLGEENSTNNSTGQSRAVIAAAARRRDNSHNEYYYEEAEHERRVRKRRARLVVAVEEAFTHIKRLQEEEQKNPREVMDPREAAQAIFASMARAMQKYLRTTKQQPYHTMESILQHLEFCITHDMTPKAFLERYLAAGPTIQYHKERWLAKQWTLVSEEPVTNGLKDGIVFLLKRQDFSLVVSTKKVPFFKLSEEFVDPKSHKFVMRLQSETEV [S520E]	increasing interaction strength

Variants of: B2
Conditions: with scrib_human SCRIB
Target sequence in this assay (Q14160 whole entry): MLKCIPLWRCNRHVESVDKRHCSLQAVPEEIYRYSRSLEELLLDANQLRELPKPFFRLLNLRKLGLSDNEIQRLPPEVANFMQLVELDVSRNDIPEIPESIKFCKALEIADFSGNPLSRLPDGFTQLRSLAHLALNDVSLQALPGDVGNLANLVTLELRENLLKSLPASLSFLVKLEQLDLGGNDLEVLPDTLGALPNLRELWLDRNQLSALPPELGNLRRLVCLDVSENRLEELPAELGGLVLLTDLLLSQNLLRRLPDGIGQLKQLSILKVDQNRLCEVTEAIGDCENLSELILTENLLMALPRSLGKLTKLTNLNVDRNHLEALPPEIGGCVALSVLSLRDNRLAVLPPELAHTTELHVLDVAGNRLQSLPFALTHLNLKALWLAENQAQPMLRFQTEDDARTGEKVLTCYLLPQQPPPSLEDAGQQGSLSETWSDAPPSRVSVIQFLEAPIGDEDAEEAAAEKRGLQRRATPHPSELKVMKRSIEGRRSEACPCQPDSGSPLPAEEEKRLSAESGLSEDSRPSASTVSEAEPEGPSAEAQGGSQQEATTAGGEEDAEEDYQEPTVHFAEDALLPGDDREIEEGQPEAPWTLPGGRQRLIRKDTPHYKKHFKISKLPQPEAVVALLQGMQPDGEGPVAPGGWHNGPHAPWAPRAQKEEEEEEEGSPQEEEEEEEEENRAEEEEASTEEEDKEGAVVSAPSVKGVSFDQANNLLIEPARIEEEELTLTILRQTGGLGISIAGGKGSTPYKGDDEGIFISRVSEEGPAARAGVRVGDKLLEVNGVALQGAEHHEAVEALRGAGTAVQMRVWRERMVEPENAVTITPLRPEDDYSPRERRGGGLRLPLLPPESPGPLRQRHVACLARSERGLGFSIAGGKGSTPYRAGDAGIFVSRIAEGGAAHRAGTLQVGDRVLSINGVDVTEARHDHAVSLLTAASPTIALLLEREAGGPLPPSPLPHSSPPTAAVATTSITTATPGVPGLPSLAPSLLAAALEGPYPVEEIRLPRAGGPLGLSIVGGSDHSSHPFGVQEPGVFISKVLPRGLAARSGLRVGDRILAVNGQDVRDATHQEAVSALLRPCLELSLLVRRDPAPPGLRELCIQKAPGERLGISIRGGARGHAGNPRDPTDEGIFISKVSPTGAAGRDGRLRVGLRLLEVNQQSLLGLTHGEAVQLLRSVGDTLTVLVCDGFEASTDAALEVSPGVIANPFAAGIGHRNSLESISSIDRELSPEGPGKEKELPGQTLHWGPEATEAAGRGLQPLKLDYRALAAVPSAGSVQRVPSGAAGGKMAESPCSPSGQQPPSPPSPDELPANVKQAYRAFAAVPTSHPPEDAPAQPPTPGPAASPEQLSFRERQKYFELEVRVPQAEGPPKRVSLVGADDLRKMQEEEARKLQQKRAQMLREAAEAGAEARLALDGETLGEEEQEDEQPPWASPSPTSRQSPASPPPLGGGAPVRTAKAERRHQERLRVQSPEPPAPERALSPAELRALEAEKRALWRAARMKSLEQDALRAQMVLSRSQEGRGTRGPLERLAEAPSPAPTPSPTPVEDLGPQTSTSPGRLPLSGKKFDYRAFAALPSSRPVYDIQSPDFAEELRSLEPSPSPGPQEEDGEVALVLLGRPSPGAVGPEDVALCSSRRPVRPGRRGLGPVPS

Variant	effect of a mutation on the interaction
S902E	increasing interaction strength

Variants of: B3
Conditions: with dlg1_human DLG1, Q12959
Target sequence in this assay (Q12959 whole entry, looked up): as the sequence (Q12959 whole entry, looked up) above

Variant	effect of a mutation on the interaction
MDTESTYSGYSYYSSHSKKSHRQGERTRERHKSPRNKDGRGSEKSVTIQPPTGEPLLGNDSTRTEEVQDDNWGETTTAITGTSEHSISQEDIARISKDMEDSVGLDCKRYLGLTVASFLGLLVFLTPIAFILLPPILWRDELEPCGTICEGLFISMAFKLLILLIGTWALFFRKRRADMPRVFVFRALLLVLIFLFVVSYWLFYGVRILDSRDRNYQGIVQYAVSLVDALLFIHYLAIVLLELRQLQPMFTLQVVRSTDGESRFYSLGHLSIQRAALVVLENYYKDFTIYNPNLLTASKFRAAKHMAGLKVYNVDGPSNNATGQSRAMIAAAARRRDSSHNELYYEEAEHERRVKKRKARLVVAVEEAFIHIQRLQAEEQQKAPGEVMDPREAAQAIFPSMARALQKYLRITRQQNYHSMESILQHLAFCITNGMTPKAFLERYLSAGPTLQYDKDRWLSTQWRLVSDEAVTNGLRDGIVFVLKCLDFSLVVNVKKIPFIILSEEFIDPKSHKFVLRLQSETEV [S523E]	increasing interaction strength

Variants of: B4
Conditions: with scrib_human SCRIB
Target sequence in this assay (Q14160 whole entry): as the sequence (Q14160 whole entry) above

Variant	effect of a mutation on the interaction
MKSPFYRCQNTTSVEKGNSAVMGGVLFSTGLLGNLLALGLLARSGLGWCSRRPLRPLPSVFYMLVCGLTVTDLLGKCLLSPVVLAAYAQNRSLRVLAPALDNSLCQAFAFFMSFFGLSSTLQLLAMALECWLSLGHPFFYRRHITLRLGALVAPVVSAFSLAFCALPFMGFGKFVQYCPGTWCFIQMVHEEGSLSVLGYSVLYSSLMALLVLATVLCNLGAMRNLYAMHRRLQRHPRSCTRDCAEPRADGREASPQPLEELDHLLLLALMTVLFTMCSLPVIYRAYYGAFKDVKEKNRTSEEAEDLRALRFLSVISIVDPWIFIIFRSPVFRIFFHKIFIRPLRYRSRCSNSTNMESEL [S358E]	causing an interaction

Variants of: B5
Conditions: with dlg1_human DLG1, Q12959
Target sequence in this assay (Q12959 whole entry, looked up): as the sequence (Q12959 whole entry, looked up) above

Variant	effect of a mutation on the interaction
MEPELAAQKQPRPRRRSRRASGLSTEGATGPSADTSGSELDGRCSLRRGSSFTFLTPGPNWDFTLKRKRREKDDDVVSLSSLDLKEPSNKRVRPLARVTSLANLISPVRNGAVRRFGQTIQSFTLRGDHRSPASAQKFSSRSTVPTPAKRRSSALWSEMLDITMKESLTTREIRRQEAIYEMSRGEQDLIEDLKLARKAYHDPMLKLSIMSEEELTHIFGDLDSYIPLHEDLLTRIGEATKPDGTVEQIGHILVSWLPRLNAYRGYCSNQLAAKALLDQKKQDPRVQDFLQRCLESPFSRKLDLWSFLDIPRSRLVKYPLLLKEILKHTPKEHPDVQLLEDAILIIQGVLSDINLKKGESECQYYIDKLEYLDEKQRDPRIEASKVLLCHGELRSKSGHKLYIFLFQDILVLTRPVTRNERHSYQVYRQPIPVQELVLEDLQDGDVRMGGSFRGAFSNSEKAKNIFRIRFHDPSPAQSHTLQANDVFHKQQWFNCIRAAIAPFQSAGSPPELQGLPELHEECEGNHPSARKLTAQRRASTVSSVTQVEVDENAYRCGSGMQMAEDSKSLKTHQTQPGIRRARDKALSGGKRKEELV [T594E]	disrupting interaction strength

Variants of: B6
Conditions: with dlg1_human DLG1, Q12959
Target sequence in this assay (Q12959 whole entry, looked up): as the sequence (Q12959 whole entry, looked up) above

Variant	effect of a mutation on the interaction
S1190E	disrupting interaction strength

Variants of: B7
Conditions: with scrib_human SCRIB
Target sequence in this assay (Q14160 whole entry): as the sequence (Q14160 whole entry) above

Variant	effect of a mutation on the interaction
T707E	disrupting interaction strength

Variants of: B7
Conditions: with dlg1_human DLG1, Q12959
Target sequence in this assay (Q12959 whole entry, looked up): as the sequence (Q12959 whole entry, looked up) above

Variant	effect of a mutation on the interaction
T707E	disrupting interaction strength
